For test [1], the target named is E74C V144C Ta16.9 (Ta_(CT-ACD)), reduced (wheat (Triticum aestivum)) (UniProt Q41560). Description: native MS.
Test [2] has the same target. Put plainly: dynamic light scattering.
Test [3] has as its target E81C V151C Ps18.1 (Ps_(CT-ACD)), reduced (Pisum sativum) (UniProt P19243). Put plainly: dynamic light scattering.
In test [4] the target is K49C W96C Ta16.9 (Ta_(dimer)), oxidized: disulfide bonded at the dimeric interface (wheat (Triticum aestivum)) (UniProt Q41560). Put plainly: SEC.
Test [5] has the same target. Put plainly: cross-linking.
For test [6] the target is unchanged. Description: dynamic light scattering.
The target of test [7] is K49C W96C Ta16.9 (Ta_(dimer)), reduced (wheat (Triticum aestivum)) (UniProt Q41560). Put plainly: dynamic light scattering.
Test [8] addresses Ps18.1, cytosolic class-I small heat-shock protein from Pisum sativum, wild type (Pisum sativum) (UniProt P19243). Description: SAXS.
For test [9] the target is unchanged. Description: dynamic light scattering.

Consider five substances from doi:10.1101/369454.

In the case of “E74C V144C Ta16.9 (Ta_(CT-ACD)), reduced (from UniProt Q41560 1-151) (natural protein)”, the stoichiometry N in test [1] and in test [2] was 12 each time.

With “E81C V151C Ps18.1 (Ps_(CT-ACD)), reduced (from UniProt P19243 1-158) (natural protein)”, in [3], the stoichiometry N (in general, a count of units in the complex or per binding partner) was found to be 12. For the substance “K49C W96C Ta16.9 (Ta_(dimer)), oxidized: disulfide bonded at the dimeric interface (from UniProt Q41560 1-151) (natural protein)”, the stoichiometry N in test [4] and in test [6] was 12 throughout. For the same substance, the size of the disulfide-linked covalent unit in test [5] came to 2 chains. For the substance “K49C W96C Ta16.9 (Ta_(dimer)), reduced (from UniProt Q41560 1-151) (natural protein)”, the stoichiometry N in [7] came out at 12. In the case of “Ps18.1, cytosolic class-I small heat-shock protein from Pisum sativum, wild type (from UniProt P19243 1-158) (natural protein)”, the stoichiometry N in [8] and in [9] was 12 throughout.
